System: MS2 coat protein
Test: apparent KD of MS2 coat protein; higher = weaker reporter binding
Conditions: Eterna round: R107
Outline: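 Designed RNA switches were made by on-chip transcription from Illumina sequencing clusters and then titrated with SNAP-549-labelled MS2 coat protein. Twofold steps ran from 0.7 or 1.5 nM to 3 µM, each lasting 0.8–1.5 h early and 10–20 min late, in 100 mM Tris-HCl pH 7.5, 80 mM KCl, 4 mM MgCl2, without or with constant ligand. Apparent KD is the per-design median of normalised cluster binding-curve fits.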

[1] = input ligand: theophylline 20 uM
[2] = input ligand: theophylline 2 mM
[3] = input ligand: tryptophan 2.4 mM

| Sequence | apparent KD of MS2 coat protein (input ligand: arginine 13.2 mM) | apparent KD of MS2 coat protein [1] | apparent KD of MS2 coat protein [2] | apparent KD of MS2 coat protein (input ligand: none) | apparent KD of MS2 coat protein [3] |
| --- | --- | --- | --- | --- | --- |
| UCAGAUGAGGCGGCCGCCACUCGCGGAUAACGAUAGAUUAACAUGAGGAUCACCCAUGUGUCAUGGAGGACCGGGCCCAUGACAU [kjmullin] | 23.8 nM | 42.3 nM | 35.1 nM |  |  |
| UCAGUGCAGGGAAGGAGCGGGUACAUGAGGAUCACCCAUGUGCAAGUGGUGAGCGUCCGUGCCCAGGUAGGUCGCCCAGCCUGGU [Atarteedon] | 69.2 nM | 235 nM | 198 nM | 121 nM | 108 nM |
| UCCUCCUCCGGAAGGAGGAGGAGUUGCGAUACCAGCCCGGAAACGGGCCCUUGGCAGCGCACAUGAGGAUCACCCAUGUCAUGUU [#1 Exclusion - Theophylline A Attempt #7 (HarryS)] | 16.7 nM | 26.3 nM |  |  | 18.8 nM |
| UCGCUCUGGGUGAGAUCCGGAGAUAUGGAAGGAGCGCUGAUUCCAGCAGGUAGGUCGCCAACGGACAUGAGGAUCACCCAUGUAC [Same State - Arginine A (Freestyle 11)] | 36.6 nM | 60.4 nM | 55.5 nM | 46.9 nM | 43.1 nM |
| UCGCUCUGGGUGAGAUCCGGAGAUGUGGAAGGAGCGCUGGAAACAGCAGGUAGGUCGCCAACGGACAUGAGGAUCACCCAUGUAC [Same State - Arginine A (Freestyle 19)] | 41.4 nM | 75.3 nM | 31.9 nM | 44.4 nM | 81.5 nM |
| UCGCUCUGGGUGGAAUCCGGAGAUGUGGAAGGAGCGCUCGAAAGGGCAGGUAGGUCGCCAACGGACAUGAGGAUCACCCAUGUAC [#23 Same State - Arginine A] | 29.4 nM | 37.5 nM | 39.8 nM | 25.4 nM | 49.2 nM |
| UCGGACAUGAGGAUCACCCAUGUAAAUCCUCGAGGACCGGUACGGCCGCCACUCGAACGAGUGGCACGCGAGUGCGCACUCGCGU [aEa] | 24.1 nM | 47.8 nM | 34 nM |  |  |
| UCGGCAGUGAACGAUACCAGCGUCACGUGGCCGGUGGUCACAUGAGGAUCACCCAUGUAACGCCCUUGGCAGCGUGCGCGUACCG [Zaancebi] | 15.1 nM | 63.5 nM |  |  | 27.3 nM |
| UCGGGCAGAGCGGCCGCCACUGUUUGGCAUGCGGAUGAAGGAACAUGAGGAUCACCCAUGUAGAUUAGGACCGGGCUUGCGGAGA [rvcmullin] | 19.1 nM | 22.1 nM | 23.8 nM | 18.2 nM | 19.5 nM |
| UCGGGCAGAGCGGCCGCCACUGUUUGGCGUGCGGAUGACGGAACAUGAGGAUCACCCAUGUUGAUUAGGACCGGGCUUGCGGAGA [qpqullin] | 11.3 nM | 24.1 nM | 13.8 nM | 14.7 nM | 14.7 nM |
| UCGUGCAGAGCGGCCGCCACUGUAUUGCGUGCGGAUGACGGAACAUGAGGAUCACCCAUGUUGUUUAGGACCGGGCUUGCCACCA ['xmullin] | 12.4 nM | 15.9 nM | 14.3 nM |  |  |
| UCGUUGAAGUCGGCCGCCACUGAACUCAUGUUCAACAUGAGGAUCACCCAUGUACCUUAUUUUAACAGGACCGGGACUUUGACGA [JR_ExcTryptoB_Sub002] | 113 nM | 229 nM | 164 nM |  |  |
| UCGUUUGAGGCGGCCGCCACUGGUCUCAUGGUCAACAUGAGGAUCACCCAUGUAUCUUAGUUAAGCAGGACCGGGCCUCGAGCGA [#18 Exclusion Tryptophan B] | 38.9 nM | 105 nM | 95.6 nM | 72.7 nM | 32.3 nM |
| UCUGGUAUGACGGCCGCCACUAGAUCGUGAGAAGCCUGCAUACAUGAGGAUCACCCAUGUCUCACUAGGACCGGGUCAUUCCAAU [theeternabot_sameState_MS2_Trp_B_5] | 53.8 nM | 105 nM | 119 nM |  |  |
| UGAAAGUAGGGAAGGAGCGCUACAACAUGAGGAUCACCCAUGUAAUGAGGAUCACCCAUGUGGCAGGUAGGUCGCCCAAAACAUG [#14 Same State - Arginine B] | 85 nM | 151 nM | 197 nM | 167 nM | 181 nM |
| UGACACAUGAGGAUCACCCAUGUCGCGAAACGAGGACCGGUACGGCCGCCACUCGCACAAACUCCUCUCCAGCACCAGCUUUUAG [theeternabot_sameState_MS2_Trp_A_3] | 15.4 nM | 28.2 nM | 24.2 nM |  |  |
| UGACAUGAGGAUCACCCAUGUAUAACUGAAGGAGCGUCCAUAAGGACAGGUAGGUCGCGGAAUGAACAGAGUGCACGACAUGUUU [Arg A SS t1] | 12.8 nM | 17.7 nM | 14.3 nM | 13.3 nM | 14.2 nM |
| UGACGAUACCUGGAUACCAGCGACAUGAGGAUCACCCAUGUAUGAGGAUCAGCCAUGUUAUGCCCUUGGCAGCCACGAAAGUCUU [UUUMULLIN] | 37.5 nM | 115 nM |  |  | 40.3 nM |
| UGAUACCAGUCGGCCGCCACUACAUGAGGAUCACCCAUGUAUCCUCAACUGCUAGAUACUAGCAGUAGGACCGGGACUGGUAUCU | 164 nM | 408 nM | 459 nM |  |  |
| UGCGAUUGCUCAGAUACCAGACAUGAGGAUCACCCAUGUACCAAGGUAAAGAAAUAACGUGUCCCUUGGCAGCUGAGCAAUCGCU [MAT - Exclusion Theophlline B - Mod of Eli - D9] | 11.9 nM | 14 nM |  |  | 11.3 nM |
| UGGGAAGGAGGAAGGAGCGCCAUAAGGGUGACUGUCUGGGUACAUGAGGAUCACCCAUGUAGGCAGGUAGGUCGCCUCGCUCUCA [Bibienoned] | 10.3 nM | 11.9 nM | 10.4 nM | 10.1 nM | 10.4 nM |
| UGGGUACAUGAGGAUCACCCAUGUACUGAAGGAGCGAGAAUUAUCUCAGGUAGGUCGCAGACAUGAGGAUCACCCAUGUAGUAGG [Exclusion Arginine A GF 12] | 25.3 nM | 30.6 nM | 37.2 nM | 27.3 nM | 24.2 nM |
| UGGGUACCGACGGCCGCCACUGAAUAUAGACAUGAGGAUCACCCAUGUAGAGAUCCUAGAAUAAACAGGACCGGGUCUGGUGCUA [Exclusion Tryptophane B GF5] | 92.4 nM | 239 nM | 293 nM |  |  |
| UGUAACAUGAGGAUCACCCAUGUGAGUGAUACCAGACUAGUGUUAGUCCCUUGGCAGCACGCUGGACGAAUGUGUAGUCUAUGCG [Same State - Theophylline A (Freestyle 19)] | 55.8 nM | 108 nM | 58.3 nM | 78 nM | 63.9 nM |
| UGUACCAUGUCGGCCGCCACUCAUGAUAAACAAGAGGAUCACCCUUGUAGCGUCAAAGACGCUAUGAGGACCGGGACAUGGUACU [TryBS Zipper 2] | 29.5 nM | 41.2 nM | 43.9 nM | 29.7 nM | 15.5 nM |
| UGUACCUGUAUCUGGUCCAUAGUAUAACCUCGAGGACCGGUACGGCCGCCACUCGUCGGACCACAUGAGGAUCACCCAUGUACCG [theeternabot_exclusion_MS2_Trp_A_23] | 12.9 nM | 17.8 nM | 14.1 nM |  |  |
| UGUAUGGACUGAAGGAGCGCCUCAAAAUAUCAUGAGGAUCACCCAUGGAAGGCGAAAGCCGGGCAGGUAGGUCGCAGUCCAUACU [ArgBX 3] | 20.2 nM | 19.1 nM | 15.6 nM | 15.6 nM | 13.4 nM |
| UGUAUGGACUGAAGGAGCGCCUCAAACAUGAGGAUCACCCAUGUGGACAAAUAAGUCCUUGGGCAGGUAGGUCGCAGUCCAUACU [ArgBX 7 #StaticStem #MS2Late] | 73.5 nM | 91.2 nM | 90.6 nM | 82.8 nM | 66.1 nM |
| UGUAUGGACUGAAGGAGCGGAAAAUAAACCUGAGGAUCACCCGGGUAAUAGGCGAAAGCCAUCCAGGUAGGUCGCAGUCCAUACU | 156 nM | 233 nM | 385 nM |  | 291 nM |
| UGUAUGGACUGAAGGAGCGGGUAAAUAACCUGAGGAUCACCCAGGUAAAAGGCGAAAGCCACCCAGGUAGGUCGCAGUCCAUACU | 10.6 nM | 13.7 nM | 12.7 nM |  | 11 nM |
